Article PMC9636928 (Proceedings of the National Academy of Sciences of the …, 2022)

Target: the molecule itself
Experiment: cryo-EM structure

B1: Transmembrane protein 175 (TMEM175), human (natural protein)
chain: MSQPRTPEQALDTPGDCPPGRRDEDAGEGIQCSQRMLSFSDALLSIIATVMILPVTHTEISPEQQFDRSVQRLLATRIAVYLMTFLIVTVAWAAHTRLFQVVGKTDDTLALLNLACMMTITFLPYTFSLMVTFPDVPLGIFLFCVCVIAIGVVQALIVGYAFHFPHLLSPQIQRSAHRALYRRHVLGIVLQGPALCFAAAIFSLFFVPLSYLLMVTVILLPYVSKVTGWCRDRLLGHREPSAHPVEVFSFDLHEPLSKERVEAFSDGVYAIVATLLILDICEDNVPDPKDVKERFSGSLVAALSATGPRFLAYFGSFATVGLLWFAHHSLFLHVRKATRAMGLLNTLSLAFVGGLPLAYQQTSAFARQPRDELERVRVSCTIIFLASIFQLAMWTTALLHQAETLQPSVWFGGREHVLMFAKLALYPCASLLAFASTCLLSRFSVGIFHLMQIAVPCAFLLLRLLVGLALATLRVLRGLARPEHPPPAPTGQDDPQSQLLPAPC
- binding result: binds
